By Kd is commonly meant the free concentration of one partner at which half of the binding sites on the other are occupied at equilibrium, for simple one-to-one binding. A word on the EC50: it is the concentration at which the effect is half-maximal. Read a low EC50 as higher potency in that assay.

Among the data in article PMC9060471 are Kd and EC50 values, retold here.

Assay [1] deals with 6xHis-TLX ligand-binding domain, Q9Y466. Briefly: BLI; 6xHis-TLX LBD on Ni-NTA biosensors, Octet Red 96; atrophin peptide in solution.
6xHis-TLX ligand-binding domain, Q9Y466, sequence (Q9Y466 155-385): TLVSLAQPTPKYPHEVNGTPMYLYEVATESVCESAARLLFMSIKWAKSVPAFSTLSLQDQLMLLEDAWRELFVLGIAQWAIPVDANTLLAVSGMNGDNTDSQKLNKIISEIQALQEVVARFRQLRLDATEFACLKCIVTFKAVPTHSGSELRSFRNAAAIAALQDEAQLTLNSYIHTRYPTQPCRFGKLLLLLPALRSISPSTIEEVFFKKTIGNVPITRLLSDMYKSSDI
The target is the same in assay [2]. Briefly: AlphaScreen or HTRF; ALPHA; atrophin peptide on donor beads, TLX ligand-binding domain on acceptor beads; competition with untagged atrophin peptide. A general note: Alpha assays give light when donor and acceptor beads are brought close together.

B1: atrophin corepressor peptide (untagged) (peptide)
chain: PPYADTPALRQLSEYARPHVAFSP
modifications: not checked
In turn, B1 yielded a Kd in assay [1] of 14.2 µM. The EC50 in assay [2] worked out at 1.3 µM.
